The supplement of paper PMC7877785
± gives the uncertainty stated by the source.

Experiment: self-splicing fitness, log relative to wild type (ln ratio); higher = more splicing; Tetrahymena group I intron in knt gene, E. coli kanamycin selection, DiMSum; sequences stand for … in CUCUCU…GGAGGGAAAAGUUAUCAGGCAUGCACCUGGUAGCUAGUCUUUAAACCAAUAGAUUGCAUCGGUUUAAAAGGCAAGACCGUCAAAUUGCGGGAAAGGGGUCAACAGCCGUUCAGUACCAAGUCUCAGGGGAAACUUUGAGAUGGCCUUGCAAAGGGUAUGGUAAUAAGCUGACGGACAUGGUCCUAACCACGCAGCCAAGUCCUAAGUCAACAGAUCUUCUGUUGAUAUGGAUGCAGUUCACAGACUAAAUGUCGGUCGGGGAAGAUGUAUUCUUCUCAUAAGAUAUAGUCGGACCUCUCCUUAAUGGGAGCUAGCGGAUGAAGUGAUGCAACACUGGAGCCGCUGGGAACUAAUUUGUAUGCGAAAGUAUAUUGAUUAGUUUUGGAGUACUCGUGGUCG
Summary of the method: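 Pooled colonies went to amplicon sequencing on an Illumina HiSeq 2500 after six replicate transformations. The plates were LB agar with 100 μg/mL carbenicillin, 50 μM IPTG and 0.2% rhamnose, with or without 25 μg/mL kanamycin, incubated overnight at 37°C or 30°C. The E. coli BL21(DE3) library had all eight P1ex-region intron nucleotides randomised, the intron placed in the knt kanamycin-resistance gene on pET-22b(+). DiMSum fitness is the error-weighted combination of replicate fold changes, kanamycin against none, normalised to wild type.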

In the case of AAGGAGCAAUAUUACGCACC, the “self-splicing fitness (ln)” value (37 °C) is reported as -1.22 ± 0.3.

For AAGGAGCAAUAUUACGCAGU, the “self-splicing fitness (ln)” value (30 °C) was -3.65 ± 0.43 and the “self-splicing fitness (ln)” value (37 °C) was -1.38 ± 0.19.

With AAGGAGCAAUAUUACGCAUA the “self-splicing fitness (ln)” value (30 °C) was -2.45 ± 0.49.

With AAGGAGCAAUAUUACGCAUG the “self-splicing fitness (ln)” value (30 °C) was -3.28 ± 0.22 and the “self-splicing fitness (ln)” value (37 °C) was -2.65 ± 0.22.

In the case of AAGGAGCAAUAUUACGCCCG, the “self-splicing fitness (ln)” value (30 °C) is reported as -1.88 ± 0.17 and the “self-splicing fitness (ln)” value (37 °C) is reported as -1.01 ± 0.22.

For AAGGAGCAAUAUUACGCGAG, the “self-splicing fitness (ln)” value (30 °C) was -2.86 ± 0.19 and the “self-splicing fitness (ln)” value (37 °C) was -2.23 ± 0.19.

With AAGGAGCAAUAUUACGCUCG the “self-splicing fitness (ln)” value (30 °C) was -0.454 ± 0.13 and the “self-splicing fitness (ln)” value (37 °C) was -0.814 ± 0.17.

For AAGGAGCAAUAUUACGCUGU, the “self-splicing fitness (ln)” value (30 °C) was -2.59 ± 0.22 and the “self-splicing fitness (ln)” value (37 °C) was -1.64 ± 0.23.

For AAGGAGCAAUAUUACGGAAG, the “self-splicing fitness (ln)” value (30 °C) was -3.7 ± 0.34 and the “self-splicing fitness (ln)” value (37 °C) was -1.63 ± 0.25.

With AAGGAGCAAUAUUACGGACU the “self-splicing fitness (ln)” value (30 °C) was -1.99 ± 0.16 and the “self-splicing fitness (ln)” value (37 °C) was -0.907 ± 0.19.

With AAGGAGCAAUAUUACGGCCA the “self-splicing fitness (ln)” value (30 °C) was -1.83 ± 0.19 and the “self-splicing fitness (ln)” value (37 °C) was -1.66 ± 0.27.

For AAGGAGCAAUAUUACGGCGU, the “self-splicing fitness (ln)” value (30 °C) was -1.33 ± 0.13 and the “self-splicing fitness (ln)” value (37 °C) was -0.923 ± 0.12.

With AAGGAGCAAUAUUACGGGCG the “self-splicing fitness (ln)” value (30 °C) was -4.03 ± 0.39 and the “self-splicing fitness (ln)” value (37 °C) was -1.87 ± 0.31.

For AAGGAGCAAUAUUACGGUCA, the “self-splicing fitness (ln)” value (37 °C) was -2.26 ± 0.32.

For AAGGAGCAAUAUUACGGUUG, the “self-splicing fitness (ln)” value (30 °C) was -2.52 ± 0.17 and the “self-splicing fitness (ln)” value (37 °C) was -3.27 ± 0.32.

In the case of AAGGAGCAAUAUUACGUCUG, the “self-splicing fitness (ln)” value (30 °C) is reported as -1.18 ± 0.15 and the “self-splicing fitness (ln)” value (37 °C) is reported as -0.52 ± 0.27.

With AAGGAGCAAUAUUACGUGGG the “self-splicing fitness (ln)” value (30 °C) was -2.68 ± 0.18 and the “self-splicing fitness (ln)” value (37 °C) was -2.68 ± 0.17.

With AAGGAGCAAUAUUACGUGGU the “self-splicing fitness (ln)” value (30 °C) was -2.94 ± 0.2 and the “self-splicing fitness (ln)” value (37 °C) was -1.36 ± 0.22.

In the case of AAGGAGCAAUAUUACGUUAC, the “self-splicing fitness (ln)” value (37 °C) is reported as -1.53 ± 0.35.

For AAGGAGCAAUAUUACGUUAG, the “self-splicing fitness (ln)” value (30 °C) was -3.67 ± 0.18 and the “self-splicing fitness (ln)” value (37 °C) was -2.95 ± 0.22.

With AAGGAGCAAUAUUACGUUCU the “self-splicing fitness (ln)” value (30 °C) was -2.47 ± 0.14 and the “self-splicing fitness (ln)” value (37 °C) was -1.09 ± 0.12.

With AAGUAGCAAUAUUACGAAUC the “self-splicing fitness (ln)” value (30 °C) was -2.13 ± 0.22 and the “self-splicing fitness (ln)” value (37 °C) was -1.4 ± 0.25.

For AAGUAGCAAUAUUACGACUU, the “self-splicing fitness (ln)” value (30 °C) was -0.629 ± 0.11 and the “self-splicing fitness (ln)” value (37 °C) was -1.34 ± 0.13.

For AAGUAGCAAUAUUACGAGAG, the “self-splicing fitness (ln)” value (30 °C) was -3.09 ± 0.22 and the “self-splicing fitness (ln)” value (37 °C) was -1.05 ± 0.21.

For AAGUAGCAAUAUUACGAGUA, the “self-splicing fitness (ln)” value (30 °C) was -1.79 ± 0.15 and the “self-splicing fitness (ln)” value (37 °C) was -1.86 ± 0.18.

For AAGUAGCAAUAUUACGAUUG, the “self-splicing fitness (ln)” value (30 °C) was -3.24 ± 0.28 and the “self-splicing fitness (ln)” value (37 °C) was -0.999 ± 0.22.

With AAGUAGCAAUAUUACGCAAC the “self-splicing fitness (ln)” value (30 °C) was -3.33 ± 0.25 and the “self-splicing fitness (ln)” value (37 °C) was -2.87 ± 0.35.

For AAGUAGCAAUAUUACGCAAG, the “self-splicing fitness (ln)” value (30 °C) was -1.81 ± 0.17 and the “self-splicing fitness (ln)” value (37 °C) was 0.657 ± 0.18.

For AAGUAGCAAUAUUACGCCCC, the “self-splicing fitness (ln)” value (30 °C) was -1.1 ± 0.19 and the “self-splicing fitness (ln)” value (37 °C) was -1.22 ± 0.22.

In the case of AAGUAGCAAUAUUACGCCGG, the “self-splicing fitness (ln)” value (30 °C) is reported as -3.7 ± 0.3 and the “self-splicing fitness (ln)” value (37 °C) is reported as -1.59 ± 0.18.

In the case of AAGUAGCAAUAUUACGCUGU, the “self-splicing fitness (ln)” value (30 °C) is reported as -3.66 ± 0.25 and the “self-splicing fitness (ln)” value (37 °C) is reported as -1.87 ± 0.14.

With AAGUAGCAAUAUUACGGAAC the “self-splicing fitness (ln)” value (30 °C) was -1.4 ± 0.49 and the “self-splicing fitness (ln)” value (37 °C) was -1.46 ± 0.25.

In the case of AAGUAGCAAUAUUACGGAAG, the “self-splicing fitness (ln)” value (30 °C) is reported as -2.96 ± 0.19 and the “self-splicing fitness (ln)” value (37 °C) is reported as -2.44 ± 0.37.

With AAGUAGCAAUAUUACGGAUU the “self-splicing fitness (ln)” value (30 °C) was -0.677 ± 0.092 and the “self-splicing fitness (ln)” value (37 °C) was -0.751 ± 0.11.

For AAGUAGCAAUAUUACGGCCA, the “self-splicing fitness (ln)” value (30 °C) was -0.679 ± 0.095 and the “self-splicing fitness (ln)” value (37 °C) was 0.256 ± 0.11.

In the case of AAGUAGCAAUAUUACGGGAC, the “self-splicing fitness (ln)” value (30 °C) is reported as -2.43 ± 0.11 and the “self-splicing fitness (ln)” value (37 °C) is reported as -2.83 ± 0.21.

For AAGUAGCAAUAUUACGGGCG, the “self-splicing fitness (ln)” value (30 °C) was -1.71 ± 0.11 and the “self-splicing fitness (ln)” value (37 °C) was -1.53 ± 0.14.

In the case of AAGUAGCAAUAUUACGGGGA, the “self-splicing fitness (ln)” value (30 °C) is reported as -2.42 ± 0.18 and the “self-splicing fitness (ln)” value (37 °C) is reported as -1.74 ± 0.17.

With AAGUAGCAAUAUUACGGGUU the “self-splicing fitness (ln)” value (30 °C) was -1.46 ± 0.13 and the “self-splicing fitness (ln)” value (37 °C) was -1.55 ± 0.17.

With AAGUAGCAAUAUUACGUCAC the “self-splicing fitness (ln)” value (30 °C) was -3.26 ± 0.15 and the “self-splicing fitness (ln)” value (37 °C) was -3.73 ± 0.22.

With AAGUAGCAAUAUUACGUUAC the “self-splicing fitness (ln)” value (30 °C) was -3.59 ± 0.3 and the “self-splicing fitness (ln)” value (37 °C) was -2.71 ± 0.29.

With AAGUAGCAAUAUUACGUUCC the “self-splicing fitness (ln)” value (30 °C) was -1.67 ± 0.16 and the “self-splicing fitness (ln)” value (37 °C) was -0.678 ± 0.16.

For AAGUAGCAAUAUUACGUUCG, the “self-splicing fitness (ln)” value (30 °C) was -1.35 ± 0.13 and the “self-splicing fitness (ln)” value (37 °C) was -0.681 ± 0.17.

In the case of AAUAAGCAAUAUUACGAAAC, the “self-splicing fitness (ln)” value (30 °C) is reported as -3.3 ± 0.39 and the “self-splicing fitness (ln)” value (37 °C) is reported as -2.17 ± 0.49.

With AAUAAGCAAUAUUACGACAC the “self-splicing fitness (ln)” value (30 °C) was -1.12 ± 0.16 and the “self-splicing fitness (ln)” value (37 °C) was -0.462 ± 0.16.

In the case of AAUAAGCAAUAUUACGAGCU, the “self-splicing fitness (ln)” value (30 °C) is reported as -0.949 ± 0.1 and the “self-splicing fitness (ln)” value (37 °C) is reported as -0.237 ± 0.1.

For AAUAAGCAAUAUUACGAGUC, the “self-splicing fitness (ln)” value (30 °C) was -3.1 ± 0.28 and the “self-splicing fitness (ln)” value (37 °C) was -1.48 ± 0.18.

With AAUAAGCAAUAUUACGAUCC the “self-splicing fitness (ln)” value (30 °C) was -0.993 ± 0.21 and the “self-splicing fitness (ln)” value (37 °C) was -0.374 ± 0.24.

With AAUAAGCAAUAUUACGCGCU the “self-splicing fitness (ln)” value (30 °C) was -0.554 ± 0.17 and the “self-splicing fitness (ln)” value (37 °C) was -0.562 ± 0.18.

For AAUAAGCAAUAUUACGCGUU, the “self-splicing fitness (ln)” value (30 °C) was -3.75 ± 0.15 and the “self-splicing fitness (ln)” value (37 °C) was -1.8 ± 0.14.

With AAUAAGCAAUAUUACGCUCA the “self-splicing fitness (ln)” value (30 °C) was -0.304 ± 0.091 and the “self-splicing fitness (ln)” value (37 °C) was -0.155 ± 0.12.

With AAUAAGCAAUAUUACGGCCA the “self-splicing fitness (ln)” value (30 °C) was -0.21 ± 0.12 and the “self-splicing fitness (ln)” value (37 °C) was -0.615 ± 0.12.

For AAUAAGCAAUAUUACGGCGG, the “self-splicing fitness (ln)” value (30 °C) was -0.94 ± 0.093 and the “self-splicing fitness (ln)” value (37 °C) was -0.865 ± 0.1.

In the case of AAUAAGCAAUAUUACGGUAU, the “self-splicing fitness (ln)” value (30 °C) is reported as -2.05 ± 0.099 and the “self-splicing fitness (ln)” value (37 °C) is reported as -1.04 ± 0.13.

With AAUAAGCAAUAUUACGGUGU the “self-splicing fitness (ln)” value (30 °C) was -2.59 ± 0.12 and the “self-splicing fitness (ln)” value (37 °C) was -0.711 ± 0.12.

In the case of AAUAAGCAAUAUUACGUAGU, the “self-splicing fitness (ln)” value (30 °C) is reported as -3.14 ± 0.15 and the “self-splicing fitness (ln)” value (37 °C) is reported as -2.15 ± 0.19.

For AAUAAGCAAUAUUACGUGAG, the “self-splicing fitness (ln)” value (30 °C) was -0.815 ± 0.065 and the “self-splicing fitness (ln)” value (37 °C) was -0.198 ± 0.093.

With AAUAAGCAAUAUUACGUGCA the “self-splicing fitness (ln)” value (30 °C) was -0.334 ± 0.062 and the “self-splicing fitness (ln)” value (37 °C) was 0.0616 ± 0.079.

In the case of AAUAAGCAAUAUUACGUGUG, the “self-splicing fitness (ln)” value (30 °C) is reported as -1.05 ± 0.077 and the “self-splicing fitness (ln)” value (37 °C) is reported as -1.57 ± 0.1.

With AAUCAGCAAUAUUACGAAGA the “self-splicing fitness (ln)” value (30 °C) was -0.26 ± 0.087 and the “self-splicing fitness (ln)” value (37 °C) was 0.0829 ± 0.099.

For AAUCAGCAAUAUUACGAAGG, the “self-splicing fitness (ln)” value (30 °C) was -1.16 ± 0.071 and the “self-splicing fitness (ln)” value (37 °C) was -0.793 ± 0.099.
